# Data published in patent publication US20150166647A1 (VLST, published 2015).
# T1: human HCC-1/CCL14/CCL14a (human, UniProt Q16627 28-93)
# T1 sequence: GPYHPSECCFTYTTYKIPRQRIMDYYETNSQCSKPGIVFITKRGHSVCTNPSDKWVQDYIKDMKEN
# T2: Eotaxin-2
# T2 construct: also called Eotaxin-2/CCL24; CCL24
# T2 chemokine: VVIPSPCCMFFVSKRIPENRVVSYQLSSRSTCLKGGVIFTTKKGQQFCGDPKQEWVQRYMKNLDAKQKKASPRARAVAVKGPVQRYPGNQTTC
# T3: I-309
# T3 construct: also called I-309/CCL1; CCL1
# T3 chemokine: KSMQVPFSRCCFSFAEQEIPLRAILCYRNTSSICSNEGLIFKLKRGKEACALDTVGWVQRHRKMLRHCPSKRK
# T4: human MPIF-1/CCL23 (human, UniProt P55773 46-120)
# T4 sequence: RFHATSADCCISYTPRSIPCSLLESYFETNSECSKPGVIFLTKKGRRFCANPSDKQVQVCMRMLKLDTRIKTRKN
# T5: human PARC/CCL18 (human, UniProt P55774 21-89)
# T5 sequence: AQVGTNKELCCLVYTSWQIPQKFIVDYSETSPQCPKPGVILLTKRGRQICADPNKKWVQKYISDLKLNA
# T6: HCC-4
# T6 construct: also called HCC-4/CCL16; CCL16
# T6 chemokine: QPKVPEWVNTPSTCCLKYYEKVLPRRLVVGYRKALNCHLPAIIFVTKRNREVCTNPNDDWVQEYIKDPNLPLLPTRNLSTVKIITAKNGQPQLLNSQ
# T7: MDC
# T7 construct: also called MDC/CCL22; CCL22
# T7 chemokine: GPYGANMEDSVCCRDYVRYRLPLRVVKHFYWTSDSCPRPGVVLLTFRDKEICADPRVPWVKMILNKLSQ
# T8: human HCC-2/MIP-1δ/CCL15 (human, UniProt Q16663 46-113)
# T8 sequence: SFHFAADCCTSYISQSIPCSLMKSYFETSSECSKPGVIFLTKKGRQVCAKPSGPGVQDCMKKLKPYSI
# T9: ELC
# T9 construct: also called ELC/MIP-3β/CCL19; CCL19
# T9 chemokine: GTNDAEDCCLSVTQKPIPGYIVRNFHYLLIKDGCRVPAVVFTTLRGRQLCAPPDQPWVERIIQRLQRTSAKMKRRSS
# T10: human RANTES/CCL5 (human, UniProt P13501 24-91)
# T10 construct: also called Biotin-RANTES
# T10 sequence: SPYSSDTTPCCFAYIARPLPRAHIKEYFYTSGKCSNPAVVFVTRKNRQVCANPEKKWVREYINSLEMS
# How the values were obtained:
# human HCC-1/CCL14/CCL14a = molecular target: T1, human HCC-1/CCL14/CCL14a; experiment: MSD electrochemiluminescence assay; chemokine coated at 1 µg/mL, 18V4F at 3 µg/mL; background = BSA
# human MCP-1/CCL2 = molecular target: T11, human MCP-1/CCL2 (human, UniProt P13500 24-99); experiment: as above
# T11 construct: also called Biotin-MCP1
# Eotaxin-2 = molecular target: T2, Eotaxin-2; experiment: as above
# MCP-3 = molecular target: T12, MCP-3; experiment: as above
# T12 construct: also called MCP-3/CCL7; CCL7
# I-309 = molecular target: T3, I-309; experiment: as above
# human MPIF-1/CCL23 [1] = molecular target: T4, human MPIF-1/CCL23; experiment: as above
# human PARC/CCL18 = molecular target: T5, human PARC/CCL18; experiment: as above
# HCC-4 = molecular target: T6, HCC-4; experiment: as above
# MDC = molecular target: T7, MDC; experiment: as above
# MCP-4 [2] = molecular target: T13, MCP-4; experiment: as above
# T13 construct: also called MCP-4/CCL13; CCL13
# MIP3-α = molecular target: T14, MIP3-α; experiment: as above
# T14 construct: also called LARC/MIP-3α/CCL20; CCL20
# Eotaxin = molecular target: T15, Eotaxin; experiment: as above
# T15 construct: also called Eotaxin/CCL11; CCL11
# human HCC-2/MIP-1δ/CCL15 = molecular target: T8, human HCC-2/MIP-1δ/CCL15; experiment: as above
# ELC = molecular target: T9, ELC; experiment: as above
# human RANTES/CCL5 = molecular target: T10, human RANTES/CCL5; experiment: ELISA, hybridoma fusion-well supernatant on biotinylated chemokine on streptavidin plate; background approx. 0.150
# human MPIF-1/CCL23 [3] = molecular target: T4, human MPIF-1/CCL23; experiment: MSD electrochemiluminescence assay; chemokine coated at 1 µg/mL, 7D12A at 3 µg/mL; background = BSA
# MCP-4 [4] = molecular target: T13, MCP-4; experiment: as above
# IL-8 = molecular target: T16, IL-8; experiment: as above
# T16 construct: also called IL-8/CXCL8; CXCL8
# T16 sequence (chemokine, as listed by the source): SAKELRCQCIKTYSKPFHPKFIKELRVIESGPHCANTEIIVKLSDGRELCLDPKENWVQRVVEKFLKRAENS
# T13 sequence (chemokine, as listed by the source): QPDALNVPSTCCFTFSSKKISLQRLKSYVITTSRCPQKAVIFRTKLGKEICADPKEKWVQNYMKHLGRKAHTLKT
# T15 sequence (chemokine, as listed by the source): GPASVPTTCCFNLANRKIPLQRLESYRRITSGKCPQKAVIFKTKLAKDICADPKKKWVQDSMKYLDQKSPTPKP
# T14 sequence (chemokine, as listed by the source): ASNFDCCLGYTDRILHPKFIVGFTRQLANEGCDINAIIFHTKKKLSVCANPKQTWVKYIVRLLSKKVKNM
# T12 sequence (chemokine, as listed by the source): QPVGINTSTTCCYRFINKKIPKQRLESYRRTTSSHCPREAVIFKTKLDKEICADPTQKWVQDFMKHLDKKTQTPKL
# T11 sequence (P13500 24-99 limits assumed): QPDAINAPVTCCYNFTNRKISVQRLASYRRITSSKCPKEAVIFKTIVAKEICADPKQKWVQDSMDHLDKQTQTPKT
Binder,binding result (human HCC-1/CCL14/CCL14a),binding result (human MCP-1/CCL2),binding result (Eotaxin-2),binding result (MCP-3),binding result (I-309),binding result (human MPIF-1/CCL23 [1]),binding result (human PARC/CCL18),binding result (HCC-4),binding result (MDC),binding result (MCP-4 [2]),binding result (MIP3-α),binding result (Eotaxin),binding result (human HCC-2/MIP-1δ/CCL15),binding result (ELC),ELISA signal (human RANTES/CCL5),binding result (human MPIF-1/CCL23 [3]),binding result (MCP-4 [4]),binding result (IL-8)
"monoclonal antibody 18V4F (antibody, V domains shown, also called MAb 18V4F) VH: QVQLKESGPGLVAPSQSLSITCTVSGFSLTGYGIHWVRQPPGKGLEWLGVIWPGGGTNYNSALMSRLSISKDNSKSQVFLKMNSLQTDDTAMYYCARGPLITTEVSMDYWGQGTSVTVSS VL: QAVVTQESALTTSPGETVTLTCRSNTGAVTTSNYANWVQEKPDHLFTGLIGGTNNRAPGVPARFSGSLIGDKAALTITGAQTEDEAIYFCALWYSNHWVFGGGTKLTVLG",no binding (tested: 3 µg/mL),no binding (tested: 3 µg/mL),no binding (tested: 3 µg/mL),no binding (tested: 3 µg/mL),no binding (tested: 3 µg/mL),no binding (tested: 3 µg/mL),no binding (tested: 3 µg/mL),no binding (tested: 3 µg/mL),no binding (tested: 3 µg/mL),no binding (tested: 3 µg/mL),no binding (tested: 3 µg/mL),no binding (tested: 3 µg/mL),no binding (tested: 3 µg/mL),no binding (tested: 3 µg/mL),,,,
"monoclonal antibody 7D12A (antibody, V domains shown, also called MAb 7D12A) VH: EVHLQESGPSLVKPSQTLSLTCSVTGDSITNGYWNWIRKFPGNKLDYMGYISYDGNTYYNPSLKSRFSITRDTSKNQYYLQLNSVTTEDTATYYCSRGDYGTYVMDYWGQGTSVTVSS VL: NIVLTQSPVSLAVSLGQRATISCRASESVDSHGNSFMHWYQQKPGQPPKLLIYLASNLESGVPARFTGGGSGSDFTLTIDPVEADDVGTYYCQQNNEDPYTFGGGTKLEIK",,,,,,,,,,,,,,,0.178,binds,no binding (tested: 3 µg/mL),no binding (tested: 3 µg/mL)
